One experiment addresses His-LpxA (C. sakazakii) (UniProt A7MI18).
Experiment [1] concerns the target Labp V94A expressed from pKT25 (C. sakazakii). Nature of the experiment: two-hybrid; bacterial adenylate cyclase-based two-hybrid (BACTH) in E. coli BTH101, pKT25 and pUT18C fusions, β-galactosidase activity in Miller units.

“His-CSK29544_02616 (His×6-tagged CSK29544_02616 product, Labp) (natural protein)” yielded a LpxA enzymatic activity: fluorescence of ThioGlo-ACP conjugates (RFU) with UDP-GlcNAc and R-3-hydroxymyristoyl-ACP; 10 nM LpxA with 300 nM His-CSK29544 02616 against LpxA alone with His-LpxA (C. sakazakii) of 2 fold.

B1: LpxA expressed from pUT18C (enzyme)
chain: MIDKTAFIHPTAIVEEGAVIGANAHIGPFCIVGPDVKIGEGTVLKSHVVVNGHTTIGRDNEIYQFASIGEVNQDLKYAGEPTRVEIGDRNRIRESVTIHRGTAQGGGLTKVGSDNLLMINAHVAHDCTVGNRCILANNATLAGHVSVDDFAIIGGMTAVHQFCIIGAHVMVGGCSGVAQDVPPYVIAQGNHATPFGVNIEGLKRRGFSKEALHAIRNAYKLLYRSGKTLDEVKPEIAEIAAKHPEVQPFYDFFARSTRGLIR
Consider B1, for which the fold reduction in ß-galactosidase activity compared to intact Labp in experiment [1] stood at 4 fold.

These data come from publication PMC5770445.
